Key:
[1] = target: T1, structural sub-unit A of PP2A (Homo sapiens, UniProt P30153); experiment: peptide spot membrane binding, detected by western blot, with PP2A sub-unit A; conditions: E4orf4 dodecapeptide membrane; 4 μg/ml purified protein overnight; antibody against protein A; FIG. 1
T1 construct: made in house; host or cells: bacteria
Description: Recombinant protein A (structural sub-unit of PP2A) expressed in bacteria.
(§1) We have mapped the binding sites between the E4orf4 proteins (coded by the canine adenovirus type 2) and the anti-apoptotic Bcl-2 protein with PP2A by using the <<peptides spot>> technique previously described (Frank et Overwing. (1996). Meth. Mol. Biol. 66, 149-169).
(§2) This approach is based on the use of membranes containing thereon dodecapeptides representing the whole protein of interest (E4orf4 and Bcl-2) with a two amino acid gap per peptide.
(§3) Each membrane is first saturated one hour at room temperature with TBS containing 5% skim milk powder and 3% BSA, then incubated overnight in the same buffer in the of 4 μg/ml of purified protein (sub-unit A of PP2A and PP2A1 holoenzyme).: Fifty six dodecapeptides covering the whole sequence of the E4orf4 protein and hundred-fifteen dodecapeptides covering the whole sequence of the Bcl-2 protein were synthesized and covalently bound to cellulosic membranes. […]

[2] = target: T2, trimeric ABC holoenzyme PP2A1 (Sus scrofa, UniProt P54612+Q29090); experiment: peptide spot membrane binding, detected by western blot, with trimeric PP2A1 holoenzyme; design: species or system porcine; conditions: 4 μg/ml purified protein overnight, pool of antibodies against A, B and C; for binding of E4orf4 peptide sequence to PP2A1 protein: E4orf4 dodecapeptide membrane, FIG. 1; for binding of Bcl-2 peptide sequence to PP2A1 holoenzyme: Bcl-2 dodecapeptide membrane, FIG. 2
T2 construct: The trimeric PP2A1 protein has been purified to homogeneity from porcine brain; from tissue; host or cells: porcine brain
T2 sequence (P67776 whole entry, one chain of several, further chain): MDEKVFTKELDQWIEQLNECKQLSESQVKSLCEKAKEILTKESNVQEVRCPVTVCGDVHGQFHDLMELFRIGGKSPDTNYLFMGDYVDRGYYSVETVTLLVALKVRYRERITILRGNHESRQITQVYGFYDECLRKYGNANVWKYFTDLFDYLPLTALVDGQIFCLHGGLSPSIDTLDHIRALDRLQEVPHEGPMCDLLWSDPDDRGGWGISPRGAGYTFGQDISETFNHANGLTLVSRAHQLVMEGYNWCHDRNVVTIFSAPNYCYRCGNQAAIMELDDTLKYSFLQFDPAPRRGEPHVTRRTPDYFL
T2 sequence (P54612 whole entry, one chain of several): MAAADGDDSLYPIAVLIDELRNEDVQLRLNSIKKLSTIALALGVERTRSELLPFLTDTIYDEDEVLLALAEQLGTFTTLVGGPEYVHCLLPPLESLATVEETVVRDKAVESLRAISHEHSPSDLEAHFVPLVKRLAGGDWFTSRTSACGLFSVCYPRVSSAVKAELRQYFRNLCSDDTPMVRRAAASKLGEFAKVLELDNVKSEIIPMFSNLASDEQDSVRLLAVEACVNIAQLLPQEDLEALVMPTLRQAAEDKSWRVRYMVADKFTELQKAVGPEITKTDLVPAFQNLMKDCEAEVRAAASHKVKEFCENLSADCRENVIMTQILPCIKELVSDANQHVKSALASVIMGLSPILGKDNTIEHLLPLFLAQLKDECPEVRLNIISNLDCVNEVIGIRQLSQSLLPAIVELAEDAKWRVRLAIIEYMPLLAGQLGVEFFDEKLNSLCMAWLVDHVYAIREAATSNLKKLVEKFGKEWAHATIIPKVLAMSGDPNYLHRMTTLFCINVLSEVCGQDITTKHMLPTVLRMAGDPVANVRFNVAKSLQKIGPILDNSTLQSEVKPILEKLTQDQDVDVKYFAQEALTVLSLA
Description: The trimeric PP2A1 protein has been purified to homogeneity from porcine brain.
as §1, §2
Each membrane is first saturated one hour at room temperature with TBS containing 5% skim milk powder and 3% BSA, then incubated overnight in the same buffer in the of 4 μg/ml of purified protein (sub-unit A of PP2A and PP2A1 holoenzyme).: Fifty six dodecapeptides covering the whole sequence of the E4orf4 protein and hundred-fifteen dodecapeptides covering the whole sequence of the Bcl-2 protein were synthesized and covalently bound to cellulosic membranes.
The specific interaction of each purified protein (respectively the structural sub-unit A, the regulatory sub-unit of B55(B) or the trimeric ABC holoenzyme (named PP2A1) with a peptide sequence is shown by western blot, following incubation of the membrane with an antibody raised against the structural protein A (A), the regulatory sub-unit B (B) and with a pool of antibodies recognising the A, B, and C proteins of PP2A (ABC) (FIGS. 1 and 2).

[3] = target: T3, regulatory sub-unit B55 (B) of PP2A (Homo sapiens, UniProt P63151); experiment: peptide spot membrane binding, detected by western blot, with PP2A sub-unit B55; conditions: antibody against sub-unit B
T3 construct: made in house; host or cells: bacteria
T3 sequence (P63151 1-447): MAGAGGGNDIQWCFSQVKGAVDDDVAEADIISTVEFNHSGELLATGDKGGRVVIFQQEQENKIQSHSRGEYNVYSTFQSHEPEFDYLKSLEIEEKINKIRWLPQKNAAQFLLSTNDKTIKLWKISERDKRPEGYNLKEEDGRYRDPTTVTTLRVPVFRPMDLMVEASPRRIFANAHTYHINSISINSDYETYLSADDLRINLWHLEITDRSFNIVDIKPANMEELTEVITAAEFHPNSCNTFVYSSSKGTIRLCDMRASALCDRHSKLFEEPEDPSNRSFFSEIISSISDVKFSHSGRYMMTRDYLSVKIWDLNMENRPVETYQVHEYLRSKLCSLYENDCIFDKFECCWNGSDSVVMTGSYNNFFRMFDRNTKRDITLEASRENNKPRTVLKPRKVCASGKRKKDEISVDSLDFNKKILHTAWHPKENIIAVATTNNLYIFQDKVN
Description: Recombinant protein B55 (regulatory sub-unit of PP2A) expressed in bacteria.
as §1, §2, §3

T1 sequence (P30153 whole entry): as the sequence (P54612 whole entry, one chain of several) above, with T324S counted along it

Substance | binding of E4orf4 peptide sequence to sub-unit A [1] | binding of E4orf4 peptide sequence to PP2A1 protein [2] | binding of Bcl-2 peptide sequence to PP2A1 holoenzyme [2] | further results
AFRGRE VTVSLLEVFSFC (AFRGREVTVSLLEVFSFC) [site A3, E4orf4 residues 106-124, spot peptides 52 to 55] | binding sites of E4orf4 with the sub-unit A | binding sites of E4orf4 with the PP2A1 protein | – | –
ARTSPLQTPAAPGAAAGPAL [site 1-B, Bcl-2 residues 67-86, spot peptides 33 to 37] | – | – | – | binding of Bcl-2 peptide sequence to sub-unit B ([3]; Bcl-2 dodecapeptide membrane, FIG. 2): binding site of Bcl-2 with the regulatory sub-unit B
LFDFSWLSLKTLLSLALVGA [site 2-ABC, Bcl-2 residues 209-228, spot peptides 105-109] | – | – | binding site of Bcl-2 with the PP2A1 holoenzyme | –
LGSMLE SPMEFLFDTI DDVTAS (LGSMLESPMEFLFDTIDDVTAS) [site A 1, E4orf4 residues 25-46, spot peptides 13 to 18] | binding sites of E4orf4 with the sub-unit A | – | – | –
PLQTPAAPGAAAGPAL [site 1-ABC, Bcl-2 residues 71-86, spot peptides 35 to 37] | – | – | binding site of Bcl-2 with the PP2A1 holoenzyme | –
RELGSMLE SPMEFLFDTI DDVTAS (RELGSMLESPMEFLFDTIDDVTAS) [site B1, E4orf4 (canine adenovirus type 2) residues 23-46, spot peptides 12 to 18] | – | binding sites of E4orf4 with the PP2A1 protein | – | binding of E4orf4 peptide sequence to sub-unit B ([3]; E4orf4 dodecapeptide membrane, FIG. 1): binding site of E4orf4 with the structural sub-unit B

Source: patent US7498306B2, “Peptides binding to the phosphatase 2A protein” (priority 2002, dated 2009)
